Measurements from US20210388087A1 (Chugai, published 2021).

T1: Human CD3eg linker (human)
T1 construct: Single chain: epsilon and gamma subunits of human CD3 joined by a 29-mer linker, Flag-tag at the C-terminus; also called recombinant human CD3
T1 chain: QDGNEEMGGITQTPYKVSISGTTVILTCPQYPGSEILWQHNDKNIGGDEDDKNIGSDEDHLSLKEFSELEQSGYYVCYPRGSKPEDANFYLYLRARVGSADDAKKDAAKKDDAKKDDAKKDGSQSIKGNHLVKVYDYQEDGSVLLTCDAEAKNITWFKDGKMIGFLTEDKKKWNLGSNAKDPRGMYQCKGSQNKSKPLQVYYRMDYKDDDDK


Biological target: T1, Human CD3eg linker
Test: Biacore SPR, vs template H183/L072

| fold change of affinity | Binder |
| --- | --- |
| 0 fold | H183/L072 VH V95A (antibody, name in Kabat numbering, V domains shown) VH: QVQLVESGGGLVQPGRSLRLSCAASGFTFSNAWMHWVRQAPGKGLEWVAQIKDKGNAYAAYYAPSVKGRFTISRDDSKNSIYLQMNSLKTEDTAVYYCHYAHYASASTVLPAFGVDAWGQGTTVTVSS VL: DIVMTQSPLSLPVTPGEPASISCQASQELVHMNRNTYLHWYQQKPGQAPRLLIYKVSNRFPGVPDRFSGSGSGTDFTLKISRVEAEDVGVYYCAQGTSVPFTFGQGTKLEIK |
| 1.1 fold | H183/L072 VH V100cA (antibody, name in Kabat numbering, V domains shown) VH: QVQLVESGGGLVQPGRSLRLSCAASGFTFSNAWMHWVRQAPGKGLEWVAQIKDKGNAYAAYYAPSVKGRFTISRDDSKNSIYLQMNSLKTEDTAVYYCHYVHYASASTALPAFGVDAWGQGTTVTVSS VL: DIVMTQSPLSLPVTPGEPASISCQASQELVHMNRNTYLHWYQQKPGQAPRLLIYKVSNRFPGVPDRFSGSGSGTDFTLKISRVEAEDVGVYYCAQGTSVPFTFGQGTKLEIK |
| 0 fold | H183/L072 VH W33D (antibody, name in Kabat numbering, V domains shown) VH: QVQLVESGGGLVQPGRSLRLSCAASGFTFSNADMHWVRQAPGKGLEWVAQIKDKGNAYAAYYAPSVKGRFTISRDDSKNSIYLQMNSLKTEDTAVYYCHYVHYASASTVLPAFGVDAWGQGTTVTVSS VL: DIVMTQSPLSLPVTPGEPASISCQASQELVHMNRNTYLHWYQQKPGQAPRLLIYKVSNRFPGVPDRFSGSGSGTDFTLKISRVEAEDVGVYYCAQGTSVPFTFGQGTKLEIK |
| 7.5 fold | H183/L072 VH V95I (antibody, name in Kabat numbering, V domains shown) VH: QVQLVESGGGLVQPGRSLRLSCAASGFTFSNAWMHWVRQAPGKGLEWVAQIKDKGNAYAAYYAPSVKGRFTISRDDSKNSIYLQMNSLKTEDTAVYYCHYIHYASASTVLPAFGVDAWGQGTTVTVSS VL: DIVMTQSPLSLPVTPGEPASISCQASQELVHMNRNTYLHWYQQKPGQAPRLLIYKVSNRFPGVPDRFSGSGSGTDFTLKISRVEAEDVGVYYCAQGTSVPFTFGQGTKLEIK |
| 1.2 fold | H183/L072 VH V100cL (antibody, name in Kabat numbering, V domains shown) VH: QVQLVESGGGLVQPGRSLRLSCAASGFTFSNAWMHWVRQAPGKGLEWVAQIKDKGNAYAAYYAPSVKGRFTISRDDSKNSIYLQMNSLKTEDTAVYYCHYVHYASASTLLPAFGVDAWGQGTTVTVSS VL: DIVMTQSPLSLPVTPGEPASISCQASQELVHMNRNTYLHWYQQKPGQAPRLLIYKVSNRFPGVPDRFSGSGSGTDFTLKISRVEAEDVGVYYCAQGTSVPFTFGQGTKLEIK |
| 1 fold | H183/L072 VH V100cP (antibody, name in Kabat numbering, V domains shown) VH: QVQLVESGGGLVQPGRSLRLSCAASGFTFSNAWMHWVRQAPGKGLEWVAQIKDKGNAYAAYYAPSVKGRFTISRDDSKNSIYLQMNSLKTEDTAVYYCHYVHYASASTPLPAFGVDAWGQGTTVTVSS VL: DIVMTQSPLSLPVTPGEPASISCQASQELVHMNRNTYLHWYQQKPGQAPRLLIYKVSNRFPGVPDRFSGSGSGTDFTLKISRVEAEDVGVYYCAQGTSVPFTFGQGTKLEIK |
| 0.3 fold | H183/L072 VH V95M (antibody, name in Kabat numbering, V domains shown) VH: QVQLVESGGGLVQPGRSLRLSCAASGFTFSNAWMHWVRQAPGKGLEWVAQIKDKGNAYAAYYAPSVKGRFTISRDDSKNSIYLQMNSLKTEDTAVYYCHYMHYASASTVLPAFGVDAWGQGTTVTVSS VL: DIVMTQSPLSLPVTPGEPASISCQASQELVHMNRNTYLHWYQQKPGQAPRLLIYKVSNRFPGVPDRFSGSGSGTDFTLKISRVEAEDVGVYYCAQGTSVPFTFGQGTKLEIK |
| 0 fold | H183/L072 VH V95P (antibody, name in Kabat numbering, V domains shown) VH: QVQLVESGGGLVQPGRSLRLSCAASGFTFSNAWMHWVRQAPGKGLEWVAQIKDKGNAYAAYYAPSVKGRFTISRDDSKNSIYLQMNSLKTEDTAVYYCHYPHYASASTVLPAFGVDAWGQGTTVTVSS VL: DIVMTQSPLSLPVTPGEPASISCQASQELVHMNRNTYLHWYQQKPGQAPRLLIYKVSNRFPGVPDRFSGSGSGTDFTLKISRVEAEDVGVYYCAQGTSVPFTFGQGTKLEIK |
| 0 fold | H183/L072 VH W33E (antibody, name in Kabat numbering, V domains shown) VH: QVQLVESGGGLVQPGRSLRLSCAASGFTFSNAEMHWVRQAPGKGLEWVAQIKDKGNAYAAYYAPSVKGRFTISRDDSKNSIYLQMNSLKTEDTAVYYCHYVHYASASTVLPAFGVDAWGQGTTVTVSS VL: DIVMTQSPLSLPVTPGEPASISCQASQELVHMNRNTYLHWYQQKPGQAPRLLIYKVSNRFPGVPDRFSGSGSGTDFTLKISRVEAEDVGVYYCAQGTSVPFTFGQGTKLEIK |
| 5.6 fold | H183/L072 VH V100iM (antibody, name in Kabat numbering, V domains shown) VH: QVQLVESGGGLVQPGRSLRLSCAASGFTFSNAWMHWVRQAPGKGLEWVAQIKDKGNAYAAYYAPSVKGRFTISRDDSKNSIYLQMNSLKTEDTAVYYCHYVHYASASTVLPAFGMDAWGQGTTVTVSS VL: DIVMTQSPLSLPVTPGEPASISCQASQELVHMNRNTYLHWYQQKPGQAPRLLIYKVSNRFPGVPDRFSGSGSGTDFTLKISRVEAEDVGVYYCAQGTSVPFTFGQGTKLEIK |
| 0 fold | H183/L072 VH W33A (antibody, name in Kabat numbering, V domains shown) VH: QVQLVESGGGLVQPGRSLRLSCAASGFTFSNAAMHWVRQAPGKGLEWVAQIKDKGNAYAAYYAPSVKGRFTISRDDSKNSIYLQMNSLKTEDTAVYYCHYVHYASASTVLPAFGVDAWGQGTTVTVSS VL: DIVMTQSPLSLPVTPGEPASISCQASQELVHMNRNTYLHWYQQKPGQAPRLLIYKVSNRFPGVPDRFSGSGSGTDFTLKISRVEAEDVGVYYCAQGTSVPFTFGQGTKLEIK |
| 1 fold | H183/L072 VH V100cI (antibody, name in Kabat numbering, V domains shown) VH: QVQLVESGGGLVQPGRSLRLSCAASGFTFSNAWMHWVRQAPGKGLEWVAQIKDKGNAYAAYYAPSVKGRFTISRDDSKNSIYLQMNSLKTEDTAVYYCHYVHYASASTILPAFGVDAWGQGTTVTVSS VL: DIVMTQSPLSLPVTPGEPASISCQASQELVHMNRNTYLHWYQQKPGQAPRLLIYKVSNRFPGVPDRFSGSGSGTDFTLKISRVEAEDVGVYYCAQGTSVPFTFGQGTKLEIK |
| 0 fold | H183/L072 VH V95L (antibody, name in Kabat numbering, V domains shown) VH: QVQLVESGGGLVQPGRSLRLSCAASGFTFSNAWMHWVRQAPGKGLEWVAQIKDKGNAYAAYYAPSVKGRFTISRDDSKNSIYLQMNSLKTEDTAVYYCHYLHYASASTVLPAFGVDAWGQGTTVTVSS VL: DIVMTQSPLSLPVTPGEPASISCQASQELVHMNRNTYLHWYQQKPGQAPRLLIYKVSNRFPGVPDRFSGSGSGTDFTLKISRVEAEDVGVYYCAQGTSVPFTFGQGTKLEIK |
| 0 fold | H183/L072 VH W33G (antibody, name in Kabat numbering, V domains shown) VH: QVQLVESGGGLVQPGRSLRLSCAASGFTFSNAGMHWVRQAPGKGLEWVAQIKDKGNAYAAYYAPSVKGRFTISRDDSKNSIYLQMNSLKTEDTAVYYCHYVHYASASTVLPAFGVDAWGQGTTVTVSS VL: DIVMTQSPLSLPVTPGEPASISCQASQELVHMNRNTYLHWYQQKPGQAPRLLIYKVSNRFPGVPDRFSGSGSGTDFTLKISRVEAEDVGVYYCAQGTSVPFTFGQGTKLEIK |
| 0.8 fold | H183/L072 VH V100iI (antibody, name in Kabat numbering, V domains shown) VH: QVQLVESGGGLVQPGRSLRLSCAASGFTFSNAWMHWVRQAPGKGLEWVAQIKDKGNAYAAYYAPSVKGRFTISRDDSKNSIYLQMNSLKTEDTAVYYCHYVHYASASTVLPAFGIDAWGQGTTVTVSS VL: DIVMTQSPLSLPVTPGEPASISCQASQELVHMNRNTYLHWYQQKPGQAPRLLIYKVSNRFPGVPDRFSGSGSGTDFTLKISRVEAEDVGVYYCAQGTSVPFTFGQGTKLEIK |
| 4.6 fold | H183/L072 VH V100iA (antibody, name in Kabat numbering, V domains shown) VH: QVQLVESGGGLVQPGRSLRLSCAASGFTFSNAWMHWVRQAPGKGLEWVAQIKDKGNAYAAYYAPSVKGRFTISRDDSKNSIYLQMNSLKTEDTAVYYCHYVHYASASTVLPAFGADAWGQGTTVTVSS VL: DIVMTQSPLSLPVTPGEPASISCQASQELVHMNRNTYLHWYQQKPGQAPRLLIYKVSNRFPGVPDRFSGSGSGTDFTLKISRVEAEDVGVYYCAQGTSVPFTFGQGTKLEIK |
| 1.8 fold | H183/L072 VH V100iL (antibody, name in Kabat numbering, V domains shown) VH: QVQLVESGGGLVQPGRSLRLSCAASGFTFSNAWMHWVRQAPGKGLEWVAQIKDKGNAYAAYYAPSVKGRFTISRDDSKNSIYLQMNSLKTEDTAVYYCHYVHYASASTVLPAFGLDAWGQGTTVTVSS VL: DIVMTQSPLSLPVTPGEPASISCQASQELVHMNRNTYLHWYQQKPGQAPRLLIYKVSNRFPGVPDRFSGSGSGTDFTLKISRVEAEDVGVYYCAQGTSVPFTFGQGTKLEIK |
| 1.2 fold | H183/L072 VH V100iP (antibody, name in Kabat numbering, V domains shown) VH: QVQLVESGGGLVQPGRSLRLSCAASGFTFSNAWMHWVRQAPGKGLEWVAQIKDKGNAYAAYYAPSVKGRFTISRDDSKNSIYLQMNSLKTEDTAVYYCHYVHYASASTVLPAFGPDAWGQGTTVTVSS VL: DIVMTQSPLSLPVTPGEPASISCQASQELVHMNRNTYLHWYQQKPGQAPRLLIYKVSNRFPGVPDRFSGSGSGTDFTLKISRVEAEDVGVYYCAQGTSVPFTFGQGTKLEIK |
| 0.4 fold | H183/L072 VH W33F (antibody, name in Kabat numbering, V domains shown) VH: QVQLVESGGGLVQPGRSLRLSCAASGFTFSNAFMHWVRQAPGKGLEWVAQIKDKGNAYAAYYAPSVKGRFTISRDDSKNSIYLQMNSLKTEDTAVYYCHYVHYASASTVLPAFGVDAWGQGTTVTVSS VL: DIVMTQSPLSLPVTPGEPASISCQASQELVHMNRNTYLHWYQQKPGQAPRLLIYKVSNRFPGVPDRFSGSGSGTDFTLKISRVEAEDVGVYYCAQGTSVPFTFGQGTKLEIK |
| 1.2 fold | H183/L072 VH V100cM (antibody, name in Kabat numbering, V domains shown) VH: QVQLVESGGGLVQPGRSLRLSCAASGFTFSNAWMHWVRQAPGKGLEWVAQIKDKGNAYAAYYAPSVKGRFTISRDDSKNSIYLQMNSLKTEDTAVYYCHYVHYASASTMLPAFGVDAWGQGTTVTVSS VL: DIVMTQSPLSLPVTPGEPASISCQASQELVHMNRNTYLHWYQQKPGQAPRLLIYKVSNRFPGVPDRFSGSGSGTDFTLKISRVEAEDVGVYYCAQGTSVPFTFGQGTKLEIK |
